This note sets out measurements from publication PMC6173795, “The FapF Amyloid Secretion Transporter Possesses an Atypical Asymmetric Coiled Coil” (Journal of Molecular Biology, 2018).

Data set [1] concerns the molecule itself. Put plainly: crystal structure; synthetic peptide at 10 mg/ml; 0.2 M zinc acetate dihydrate, 0.1 M sodium cacodylate pH 6.5, 10% v/v 2-propanol; data processed in P1, six chains in the asymmetric unit.
Data set [2] concerns the molecule itself. Put plainly: SEC-MALS; Superdex 75 10/300 GL, phosphate buffer (20 mM PO4, 150 mM NaCl, pH 6.8), 100 ul FapF3-40 samples at 1 mg/ml, 0.25 ml/min; size exclusion profiles of wild type, R33A and R33E. For orientation: Size exclusion chromatography separates by hydrodynamic size, large species first.

B1: FapFCC synthetic peptide (predicted coiled-coil region of FapF, residues 3-40) (peptide)
chain: DVDIETLKQELLELKQRYEAQQKALAVLEQRVRQVEDQ
notes: FapF amyloid secretion transporter of Pseudomonas, coiled-coil region, residues 3-40; Parallel trimer; six chains (two trimers) in the asymmetric unit of the crystal; also called FapFCC peptide; periplasmic domain of FapF; source: synthetic peptide (ChinaPeptides, 97.5% purity)
Broadly, the stoichiometry N is the number of molecules, sites or subunits per partner or assembly. On to B1, for which the “stoichiometry N” value in data set [1] is 3.

B2: recombinant FapF3-40 (FapFCC), wild type (domain or fragment, Pseudomonas UK4)
chain: DVDIETLKQELLELKQRYEAQQKALAVLEQRVRQVEDQ
notes: Cloned into pNIC28-Bsa4 (vector: Addgene plasmid no. 26103); also called recombinant FapFCC; not shown: His6, N-terminal, cleaved
For B2, the “stoichiometry N” value in data set [2] came out at 3.
